Assay results as given in patent US20140271602, “NUCLEOTIDE-SPECIFIC RECOGNITION SEQUENCES FOR DESIGNER TAL EFFECTORS” (THE BROAD INSTITUTE INC., published 2014).

Assays:
Experiment in all cases: cell_activity; endogenous CACNA1C mRNA
Details in all cases: tags: SID
[1] = molecular target: T1, TALE1-NN repressor (Xanthomonas (engineered), UniProt P14727 SEQ:1-983)
T1 chain: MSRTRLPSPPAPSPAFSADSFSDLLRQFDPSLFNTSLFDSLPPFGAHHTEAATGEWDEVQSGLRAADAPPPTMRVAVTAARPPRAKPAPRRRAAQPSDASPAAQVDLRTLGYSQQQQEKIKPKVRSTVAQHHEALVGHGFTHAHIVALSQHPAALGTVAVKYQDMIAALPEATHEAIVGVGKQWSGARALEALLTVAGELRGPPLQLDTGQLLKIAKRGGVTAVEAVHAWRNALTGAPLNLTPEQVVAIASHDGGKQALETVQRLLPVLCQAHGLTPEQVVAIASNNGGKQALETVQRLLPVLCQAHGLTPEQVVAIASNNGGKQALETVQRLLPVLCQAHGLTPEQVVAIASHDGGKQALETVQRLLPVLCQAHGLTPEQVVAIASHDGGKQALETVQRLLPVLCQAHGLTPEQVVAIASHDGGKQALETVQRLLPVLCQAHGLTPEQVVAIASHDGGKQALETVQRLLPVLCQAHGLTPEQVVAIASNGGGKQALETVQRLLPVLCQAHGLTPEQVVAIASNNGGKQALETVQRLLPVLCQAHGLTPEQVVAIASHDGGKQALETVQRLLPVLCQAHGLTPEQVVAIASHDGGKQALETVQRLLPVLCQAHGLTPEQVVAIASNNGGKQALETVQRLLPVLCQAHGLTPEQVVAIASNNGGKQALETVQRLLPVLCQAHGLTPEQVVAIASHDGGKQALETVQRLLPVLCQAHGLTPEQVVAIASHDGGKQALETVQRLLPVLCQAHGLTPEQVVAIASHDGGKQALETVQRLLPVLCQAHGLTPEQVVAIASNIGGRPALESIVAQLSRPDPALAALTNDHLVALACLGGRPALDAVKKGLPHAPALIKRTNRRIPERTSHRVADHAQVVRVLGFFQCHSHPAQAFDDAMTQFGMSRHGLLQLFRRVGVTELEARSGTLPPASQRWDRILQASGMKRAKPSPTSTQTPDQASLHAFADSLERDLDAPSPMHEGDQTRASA

[2] = molecular target: T2, TALE1-NH repressor (Xanthomonas (engineered), UniProt P14727 SEQ:1-983)
T2 chain: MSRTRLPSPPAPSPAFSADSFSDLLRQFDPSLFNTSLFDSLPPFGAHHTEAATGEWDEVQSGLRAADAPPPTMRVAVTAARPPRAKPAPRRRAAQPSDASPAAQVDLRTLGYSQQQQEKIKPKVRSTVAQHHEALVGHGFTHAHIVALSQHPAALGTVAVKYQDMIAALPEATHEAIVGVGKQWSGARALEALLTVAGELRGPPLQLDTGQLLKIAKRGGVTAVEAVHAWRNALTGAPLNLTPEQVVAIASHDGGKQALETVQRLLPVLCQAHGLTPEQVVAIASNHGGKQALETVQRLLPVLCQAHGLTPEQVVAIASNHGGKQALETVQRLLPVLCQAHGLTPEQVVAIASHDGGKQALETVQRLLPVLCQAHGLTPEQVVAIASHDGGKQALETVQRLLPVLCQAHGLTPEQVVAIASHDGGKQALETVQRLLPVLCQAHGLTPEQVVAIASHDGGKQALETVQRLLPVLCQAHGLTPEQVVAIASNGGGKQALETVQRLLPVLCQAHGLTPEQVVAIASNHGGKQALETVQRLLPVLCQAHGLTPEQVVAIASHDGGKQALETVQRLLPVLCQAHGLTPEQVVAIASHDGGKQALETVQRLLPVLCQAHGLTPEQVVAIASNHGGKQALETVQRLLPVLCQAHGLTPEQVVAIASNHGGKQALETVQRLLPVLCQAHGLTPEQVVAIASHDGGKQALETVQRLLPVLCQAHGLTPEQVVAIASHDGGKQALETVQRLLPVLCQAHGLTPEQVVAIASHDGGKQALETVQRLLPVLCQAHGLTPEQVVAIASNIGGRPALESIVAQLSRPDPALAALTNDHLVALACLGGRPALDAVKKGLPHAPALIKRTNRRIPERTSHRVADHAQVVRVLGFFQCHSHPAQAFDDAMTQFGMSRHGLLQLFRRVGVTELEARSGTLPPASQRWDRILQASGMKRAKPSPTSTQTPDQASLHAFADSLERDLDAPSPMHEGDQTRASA

[3] = molecular target: T3, TALE1-NK repressor (Xanthomonas (engineered), UniProt P14727 SEQ:1-983)
T3 chain: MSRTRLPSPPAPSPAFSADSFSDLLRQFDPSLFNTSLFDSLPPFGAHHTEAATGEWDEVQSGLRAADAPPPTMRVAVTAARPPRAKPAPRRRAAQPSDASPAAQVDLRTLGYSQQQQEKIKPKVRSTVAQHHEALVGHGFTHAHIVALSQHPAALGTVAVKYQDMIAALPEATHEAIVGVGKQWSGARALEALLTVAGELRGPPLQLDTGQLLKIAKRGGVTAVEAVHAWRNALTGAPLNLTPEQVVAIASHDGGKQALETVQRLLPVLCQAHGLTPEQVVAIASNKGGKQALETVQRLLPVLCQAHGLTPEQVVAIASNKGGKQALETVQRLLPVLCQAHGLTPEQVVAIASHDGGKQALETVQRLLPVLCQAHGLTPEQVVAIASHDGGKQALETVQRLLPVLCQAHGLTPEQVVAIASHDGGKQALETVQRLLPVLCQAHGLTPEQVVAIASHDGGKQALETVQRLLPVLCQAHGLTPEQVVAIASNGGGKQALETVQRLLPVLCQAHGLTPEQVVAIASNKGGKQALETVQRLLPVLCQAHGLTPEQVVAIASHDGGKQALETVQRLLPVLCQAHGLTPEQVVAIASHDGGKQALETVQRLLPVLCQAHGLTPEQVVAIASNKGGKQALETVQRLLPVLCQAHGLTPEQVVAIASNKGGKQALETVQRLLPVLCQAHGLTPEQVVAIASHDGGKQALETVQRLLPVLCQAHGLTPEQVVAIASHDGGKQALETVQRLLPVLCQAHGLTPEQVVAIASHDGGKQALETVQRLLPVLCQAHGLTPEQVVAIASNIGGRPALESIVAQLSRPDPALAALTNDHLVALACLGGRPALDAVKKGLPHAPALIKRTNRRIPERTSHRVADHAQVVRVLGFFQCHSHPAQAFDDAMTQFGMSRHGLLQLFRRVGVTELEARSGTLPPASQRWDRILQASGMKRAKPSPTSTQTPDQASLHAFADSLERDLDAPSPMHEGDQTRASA

B1: CACNA1C site 1 (dsDNA)
DNA 1: TCGGCCCCTGCCGGCCCA
DNA 2: TGGGCCGGCAGGGGCCGA
Binder B1 has an activity [1] of about 4 fold repression, an activity [2] of about 4 fold repression and an activity [3] of about 2 fold repression.
